This note sets out measurements from US20170296617A1 (UNIVERSITY OF HOUSTON SYSTEM, published 2017).

Test [1] concerns the target T1, ROCK1 (UniProt Q13464 1-553, limits assumed).
T1 construct: also called Rho-associated kinase 1; p160ROCK
Briefly: SPR (BiaCore, proteins immobilized on CM-5 chip). A general note: Surface plasmon resonance follows binding to a sensor surface in real time, without labels.

Test [2] has as its target T1, ROCK1. Briefly: SPR (BiaCore), protein immobilized on CM-5 chip, peptide as analyte; the sheet does not say whether ROCK-I is ROCK1-553 or ROCK1-415.
For test [3], the target named is T2, ROCK2 (UniProt O75116 5-554, limits assumed).
T2 construct: also called ROKa
Briefly: SPR (BiaCore), protein immobilized on CM-5 chip, peptide as analyte; no ROCK-II sensorgram is drawn.

No end group written: not given here. TAT = TAT cell-penetrating sequence fused at N-terminus

T1 sequence (Q13464 1-553 limits assumed): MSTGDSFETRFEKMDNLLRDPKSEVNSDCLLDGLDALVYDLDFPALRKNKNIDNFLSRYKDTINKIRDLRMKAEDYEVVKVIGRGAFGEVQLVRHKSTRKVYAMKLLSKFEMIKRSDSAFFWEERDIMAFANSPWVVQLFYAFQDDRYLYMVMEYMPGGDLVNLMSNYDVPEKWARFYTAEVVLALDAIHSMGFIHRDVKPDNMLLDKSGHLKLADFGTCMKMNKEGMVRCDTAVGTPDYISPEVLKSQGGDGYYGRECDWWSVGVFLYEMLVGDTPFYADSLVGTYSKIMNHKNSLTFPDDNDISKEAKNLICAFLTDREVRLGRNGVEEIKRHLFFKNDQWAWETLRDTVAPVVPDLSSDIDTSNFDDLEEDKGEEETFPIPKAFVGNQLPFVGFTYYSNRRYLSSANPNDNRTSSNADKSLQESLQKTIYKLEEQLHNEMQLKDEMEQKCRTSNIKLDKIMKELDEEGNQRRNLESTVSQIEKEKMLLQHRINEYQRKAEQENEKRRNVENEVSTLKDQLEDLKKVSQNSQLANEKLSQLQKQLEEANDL
T2 sequence (O75116 5-554 limits assumed): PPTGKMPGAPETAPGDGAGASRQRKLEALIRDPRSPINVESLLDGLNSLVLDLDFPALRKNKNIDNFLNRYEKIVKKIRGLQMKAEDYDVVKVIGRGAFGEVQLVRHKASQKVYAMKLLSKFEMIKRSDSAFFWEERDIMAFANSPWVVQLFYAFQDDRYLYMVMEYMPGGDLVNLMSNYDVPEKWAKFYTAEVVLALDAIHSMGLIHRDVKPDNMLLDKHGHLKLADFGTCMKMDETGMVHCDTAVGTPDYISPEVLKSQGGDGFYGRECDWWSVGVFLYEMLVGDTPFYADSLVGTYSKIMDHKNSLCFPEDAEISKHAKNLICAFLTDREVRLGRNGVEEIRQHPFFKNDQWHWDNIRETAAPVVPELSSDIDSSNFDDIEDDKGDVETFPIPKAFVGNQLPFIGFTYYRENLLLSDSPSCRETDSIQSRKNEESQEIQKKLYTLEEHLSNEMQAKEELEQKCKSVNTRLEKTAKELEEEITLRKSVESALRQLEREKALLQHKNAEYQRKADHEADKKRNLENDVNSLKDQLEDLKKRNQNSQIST

In general, Kd refers to the concentration at which binding is half-saturated. Read a low Kd as higher affinity. ERTYSPSTAVRS (also called PD2w-5; Pep25-4) [peptide25 (ERTYSPSTAVRS)]: the Kd in test [1] was found to be 1500 nM.

B1: TATpeptide25 (peptide25 with the TAT sequence fused at its N-terminal end) (peptide)
peptide: {TAT}-ERTYSPSTAVRS
notes: Synthetic peptide added to the cell culture medium
In the case of B1, the Kd is 1450 nM in test [2] and 5150 nM in test [3].
